These results are taken from paper PMC9375587 (2022).

This test addresses Thrombin (Homo sapiens, UniProt P00734). Briefly: solid-phase binding assay.

B1: Myeloperoxidase (protein)
chain: not shown
Regarding B1, the affinity, expressed as Kd, was 101 nM.
